From the supplement of paper PMC10567573

B1: ZNF277 (parent)
chain: ILREELQKQRLREILEQQQQERND
B2: C22orf15 (parent)
chain: RGRHEQSPTSRPRKVSSLPPRSC

Variants of: B1
Assay: protein stability index of a GFP-peptide fusion (GPS, HEK-293T) (PSI 1-6); higher = more stable
Conditions: c terminus: a fixed tail appended
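Note: lentivirally expressed fusions sorted by FACS into six bins by GFP to DsRed ratio, PSI derived from sequencing read proportions per bin multiplied by bin number.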

Variant | protein stability index
ILGEELQKQRLREILEQQQQERND [R3G] | 5.05
ILREELQKQRLREILEQQQQERNL [D24L] | 4.08
ILREELQKQRLREIPEQQQQERND [L15P] | 4.54
ILREELQWQRLREILEQQQQERND [K8W] | 3.82
ILREELQKQRLREILIQQQQERND [E16I] | 3.74
ILREELQKQRLREILEQQQRERND [Q20R] | 4.41
ILREELQKQELREILEQQQQERND [R10E] | 4.83
MLREELQKQRLREILEQQQQERND [I1M] | 4.66
ILREELQKQRLREILEQQQQEHND [R22H] | 4.4
ILREELQKQRLRSILEQQQQERND [E13S] | 4.18
ILREELQKQRLREILEQQQQERCD [N23C] | 3.98
ILREELQKQRLREQLEQQQQERND [I14Q] | 4.81
ILREELQKQRLREVLEQQQQERND [I14V] | 4.25
ILREELQKQRLREILQQQQQERND [E16Q] | 3.77
IKREELQKQRLREILEQQQQERND [L2K] | 5.45
ILREEVQKQRLREILEQQQQERND [L6V] | 4.65
ILRESLQKQRLREILEQQQQERND [E5S] | 3.99
ILREELQKQRLREPLEQQQQERND [I14P] | 5.11
ILRTELQKQRLREILEQQQQERND [E4T] | 4.42
ILREELQKQILREILEQQQQERND [R10I] | 3.41
ILREELQKQRLRTILEQQQQERND [E13T] | 4.58
ILREELQKQRRREILEQQQQERND [L11R] | 4.37
ILREELQKQRLREIHEQQQQERND [L15H] | 5.11
ILREELQKQRLREILEQQAQERND [Q19A] | 4.13
ILREELQKQRLREICEQQQQERND [L15C] | 4.62
ILREELQKQRLREISEQQQQERND [L15S] | 4.99

Variant | protein stability index
ILREELQKQRLKEILEQQQQERND [R12K] | 4.6
ILREELQKQGLREILEQQQQERND [R10G] | 4.65
ILREELQKQRLREILEQQQQENND [R22N] | 4.75
ILREELQKQRLREILEQQQQARND [E21A] | 4.39
ILREELQKQRLREILEQQQQERED [N23E] | 4.59
ILREELQKQRLREILEQKQQERND [Q18K] | 3.72
ILREELQKQRLREILEQQQQERNQ [D24Q] | 4.18
ILREELQKQRLRKILEQQQQERND [E13K] | 4.22
ELREELQKQRLREILEQQQQERND [I1E] | 4.93
ILREELQKQRLREILPQQQQERND [E16P] | 4.8
ILREELQKQRLREILEQQQQERQD [N23Q] | 4.13
ILREELQKQHLREILEQQQQERND [R10H] | 4.85
ILREELQKQRLMEILEQQQQERND [R12M] | 4.58
ILREELMKQRLREILEQQQQERND [Q7M] | 3.74
ILREELQKQRLREILEQQQQERNN [D24N] | 4.08
ILREELQYQRLREILEQQQQERND [K8Y] | 4.11
ILREELQKQRLREILEQPQQERND [Q18P] | 4.68
ILREEMQKQRLREILEQQQQERND [L6M] | 3.89
ILREELQKQRLREILEQQKQERND [Q19K] | 3.7
ILREELQKQRLRAILEQQQQERND [E13A] | 3.74
ILREELQKQRLREILEQQQYERND [Q20Y] | 4.16
ILREELQKQRLREFLEQQQQERND [I14F] | 3.5
ILREELQKQRLREILEQQQQERNW [D24W] | 2.73
ILREELQKQRCREILEQQQQERND [L11C] | 4.71
ILREELQKQRLREILENQQQERND [Q17N] | 4.51
ILREECQKQRLREILEQQQQERND [L6C] | 4.18

Variants of: B2
Assay: as above
Conditions: c terminus: native

Variant | protein stability index
AGRHEQSPTSRPRKVSSLPPRSC [R1A] | 3.06
DGRHEQSPTSRPRKVSSLPPRSC [R1D] | 2.81
MGRHEQSPTSRPRKVSSLPPRSC [R1M] | 3.56
VGRHEQSPTSRPRKVSSLPPRSC [R1V] | 1.73
WGRHEQSPTSRPRKVSSLPPRSC [R1W] | 3.77
YGRHEQSPTSRPRKVSSLPPRSC [R1Y] | 3.26
RCRHEQSPTSRPRKVSSLPPRSC [G2C] | 1.57
RDRHEQSPTSRPRKVSSLPPRSC [G2D] | 2.01
RERHEQSPTSRPRKVSSLPPRSC [G2E] | 1.27
RFRHEQSPTSRPRKVSSLPPRSC [G2F] | 2.04
RHRHEQSPTSRPRKVSSLPPRSC [G2H] | 1.16
RIRHEQSPTSRPRKVSSLPPRSC [G2I] | 2.64
RMRHEQSPTSRPRKVSSLPPRSC [G2M] | 1.9
RQRHEQSPTSRPRKVSSLPPRSC [G2Q] | 2.2
RRRHEQSPTSRPRKVSSLPPRSC [G2R] | 2.96
RSRHEQSPTSRPRKVSSLPPRSC [G2S] | 3.1
RYRHEQSPTSRPRKVSSLPPRSC [G2Y] | 3.84
RGCHEQSPTSRPRKVSSLPPRSC [R3C] | 3.01
RGHHEQSPTSRPRKVSSLPPRSC [R3H] | 2.76
RGIHEQSPTSRPRKVSSLPPRSC [R3I] | 3.03
RGKHEQSPTSRPRKVSSLPPRSC [R3K] | 2.27
RGLHEQSPTSRPRKVSSLPPRSC [R3L] | 4.27

Variant | protein stability index
RGVHEQSPTSRPRKVSSLPPRSC [R3V] | 2.05
RGRAEQSPTSRPRKVSSLPPRSC [H4A] | 1.91
RGRCEQSPTSRPRKVSSLPPRSC [H4C] | 2.55
RGRFEQSPTSRPRKVSSLPPRSC [H4F] | 2.91
RGRIEQSPTSRPRKVSSLPPRSC [H4I] | 3.17
RGRNEQSPTSRPRKVSSLPPRSC [H4N] | 3.03
RGRREQSPTSRPRKVSSLPPRSC [H4R] | 3.58
RGRTEQSPTSRPRKVSSLPPRSC [H4T] | 3.06
RGRVEQSPTSRPRKVSSLPPRSC [H4V] | 2.38
RGRHFQSPTSRPRKVSSLPPRSC [E5F] | 2.19
RGRHKQSPTSRPRKVSSLPPRSC [E5K] | 2.68
RGRHLQSPTSRPRKVSSLPPRSC [E5L] | 2.09
RGRHNQSPTSRPRKVSSLPPRSC [E5N] | 2.19
RGRHPQSPTSRPRKVSSLPPRSC [E5P] | 2.93
RGRHRQSPTSRPRKVSSLPPRSC [E5R] | 2.19
RGRHYQSPTSRPRKVSSLPPRSC [E5Y] | 4.38
RGRHEISPTSRPRKVSSLPPRSC [Q6I] | 4.15
RGRHELSPTSRPRKVSSLPPRSC [Q6L] | 2.54
RGRHESSPTSRPRKVSSLPPRSC [Q6S] | 1.79
RGRHETSPTSRPRKVSSLPPRSC [Q6T] | 1.97
RGRHEVSPTSRPRKVSSLPPRSC [Q6V] | 3.92
